Consider 1 substance from patent US20230074735.

This series concerns the target Taq DNA polymerase (Thermus aquaticus) (UniProt P19821). Nature of the series: inhibition. Conditions: contains RNA cleavage site; about half amplicon yield; activity increased to some degree with 10 uM Pb2+; mechanism unclear, possibly stem recognition by polymerase.

Sequence of Taq DNA polymerase (Thermus aquaticus) (P19821 whole entry): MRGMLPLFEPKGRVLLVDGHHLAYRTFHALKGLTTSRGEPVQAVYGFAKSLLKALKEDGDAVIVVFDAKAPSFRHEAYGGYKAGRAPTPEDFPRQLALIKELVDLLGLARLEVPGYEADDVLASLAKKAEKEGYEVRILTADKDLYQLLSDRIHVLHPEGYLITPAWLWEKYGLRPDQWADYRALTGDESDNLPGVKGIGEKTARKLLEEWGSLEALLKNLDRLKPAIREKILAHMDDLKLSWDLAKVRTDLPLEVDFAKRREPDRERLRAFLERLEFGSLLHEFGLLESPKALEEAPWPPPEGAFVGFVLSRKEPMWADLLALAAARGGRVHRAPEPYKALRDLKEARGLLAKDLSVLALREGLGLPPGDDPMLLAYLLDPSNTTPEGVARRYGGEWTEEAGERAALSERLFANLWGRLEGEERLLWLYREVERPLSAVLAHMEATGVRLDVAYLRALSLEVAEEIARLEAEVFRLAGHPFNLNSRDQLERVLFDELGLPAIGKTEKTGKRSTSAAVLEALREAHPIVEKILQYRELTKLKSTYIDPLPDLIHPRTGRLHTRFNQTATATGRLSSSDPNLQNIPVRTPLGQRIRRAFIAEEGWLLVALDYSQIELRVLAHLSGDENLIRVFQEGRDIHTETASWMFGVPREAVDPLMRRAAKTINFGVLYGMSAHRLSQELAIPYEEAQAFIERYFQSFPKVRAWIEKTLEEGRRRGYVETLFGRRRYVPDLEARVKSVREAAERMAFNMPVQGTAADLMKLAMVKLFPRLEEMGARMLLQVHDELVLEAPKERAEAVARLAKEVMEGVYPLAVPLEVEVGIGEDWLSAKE

In the case of GR5 DNAzyme (71 nt), the activity (% amplicon vs polymerase only) is 50.
